B1: LINE1-full (parent)
chain: UACGUAGGUGGUUUUCCCCUGAUAGUGCUAAGGGGGCCUGGAAGUUUGGACUGGGCAGAGCUCAACACAGCGUGGCAAAGUGGCUGUGGCUAGACUGCCUCUCUGGAUUCCUCGUCACUCAGCAGGGCAUCUCUGAGAGAAAUGCC

Variants of B1 are the subject of the series. Put plainly: self-cleavage, relative activity (ratio to wild type); higher = more cleavage; in vitro, sequencing; the parent is a self-cleaving ribozyme.
Consider UACGUAGGUGGUUUUCCCCUGACAGUGCUAAGGGGGCCUGGAAGUUUGGACUGGGCAGAGCUCAACACAGCGUGGCAAAGUGGCUGUGGCUAGACUGCCUCUCUGGAUUCCUCGUCACUUAGCAGGGCAUCUCUGAGAGAAAUGCC [U23C C120U], for which the self-cleavage was determined as 0.55.
Regarding UACGUAGGUGGUUUUCCCCUGACAGUGCUAAGGGGGCCUGGAAGUUUGGACUGGGCAGAGCUCAACACAGCGUGGCAAAGUGGCUGUGGCUGGACUGCCUCUCUGGAUUCCUCGUCACUCAGCAGGGCAUCUCUGAGAGAAAUGCC [U23C A92G], the self-cleavage came to 0.09.
Take UACGUAGGUGGUUUUCCCCUGACAGUGCUAAGGGGGCCUGGAAGUUUGGACUGGGCAGAGCUCAACACAGCGUGCCAAAGUGGCUGUGGCUAGACUGCCUCUCUGGAUUCCUCGUCACUCAGCAGGGCAUCUCUGAGAGAAAUGCC [U23C G75C]: the self-cleavage amounted to 1.23.
With UACGUAGGUGGUUUUCCCCUGACAGUGCUAAGGGGGCCUGGAAGUUUGGACUGGGCAGAGCUCAACACAGCGUGGCAAAGUGGCUGUGGCUAGACUGCCUCUCUGGAUUCCUCGUCACUCCGCAGGGCAUCUCUGAGAGAAAUGCC [U23C A121C], the self-cleavage was 1.9.
With UACGUAGGUGGUUUUCCCCUGACAGUGCUAAGGGGGCCUGGAAGUUUGGACUGGGAAGAGCUCAACACAGCGUGGCAAAGUGGCUGUGGCUAGACUGCCUCUCUGGAUUCCUCGUCACUCAGCAGGGCAUCUCUGAGAGAAAUGCC [U23C C56A], the self-cleavage was found to be 0.07.
Turning to UACGUAGGUGGUUUUCCCCUGACAGUGCUAAGGGGGCCUGGAAGUUUGGACUGGGCAGAGCUCCACACAGCGUGGCAAAGUGGCUGUGGCUAGACUGCCUCUCUGGAUUCCUCGUCACUCAGCAGGGCAUCUCUGAGAGAAAUGCC [U23C A64C], the self-cleavage worked out at 0.29.
Next, UACGUAGGUGGUUUUCCCCUGACAGUGCUAAGGGGGCCUGGAAGUUUGGACUGAGCAGAGCUCAACACAGCGUGGCAAAGUGGCUGUGGCUAGACUGCCUCUCUGGAUUCCUCGUCACUCAGCAGGGCAUCUCUGAGAGAAAUGCC [U23C G54A]: 0.51; UACGUAGGUGGUUUUCCCCUGACAGUGCUAAGGGGGCCUGGAAGUUUGGACUGGGCAGAGCUCAACACAGCGUGGCAAAGUGGCUGUGGCUAGACUGCCUCUCUGGAUUCCUCGUCACUCAGCAGGGCAUCUCUGAGAGAAGUGCC [U23C A142G]: 1.61.
For UACGUAGGUGGUUUUCCCCUGACAGUGCUAAGGGGGCCUGGAAGUUUGGACUAGGCAGAGCUCAACACAGCGUGGCAAAGUGGCUGUGGCUAGACUGCCUCUCUGGAUUCCUCGUCACUCAGCAGGGCAUCUCUGAGAGAAAUGCC [U23C G53A], the self-cleavage was found to be 0.87.
Next, UACGUAGGUGGUUUUCCCCUGACAGUGCUAAGGGGGCCUGGAAGUUUGGAUUGGGCAGAGCUCAACACAGCGUGGCAAAGUGGCUGUGGCUAGACUGCCUCUCUGGAUUCCUCGUCACUCAGCAGGGCAUCUCUGAGAGAAAUGCC [U23C C51U]: 0.97; UACGUAGGUGGUUUUCCCCUGACAGUGCUAAGGGGGCCUGGAAGUUUGGAAUGGGCAGAGCUCAACACAGCGUGGCAAAGUGGCUGUGGCUAGACUGCCUCUCUGGAUUCCUCGUCACUCAGCAGGGCAUCUCUGAGAGAAAUGCC [U23C C51A]: 0.98; UACGUAGGUGGUUUUCCCCUGACAGUGCUAAGGGGGCCUGGAAGUUUGGACUGGGCAGAGCUCAACACAGCGUGGCAAAGUGGCUGUGGCUAGACUGCCUCUCUGGAUUCCUCGUCACUCAGCAGGGCAUCUCUGAGAGCAAUGCC [U23C A140C]: 1.35.
To UACGUAGGUGGUUUUCCCCUGACAGUGCUAAGGGGGCCUGGAAGUUUGGACUGGGCAGAGCUCAACACAGCGUGGCAAAGUGGCUGUGGCUAGACUGCCUCUCUGGAUUCCUCGUCACUCAGCAGGGCAUCUCUGAGAGUAAUGCC [U23C A140U] belongs 1.29.
Next, UACGUAGGUGGUUUUCCCCUGACAGUGCUAAGGGGGCCUGGAAGUUUGGACUGGGCAGAGCUCAACACAGCGUGGCAAAGUGGCUGUGGCUAGACUGCCUCUCUGGAUUCCUCGUCACUCAGCAGGGCAUCUCUGAGAGGAAUGCC [U23C A140G]: 1.28.
UACGUAGGUGGUUUUCCCCUGACAGUGCUAAGGGGGCCUGGAAGUUUGGACUGGGCAGAGCUCAACACAGCGUGGCUAAGUGGCUGUGGCUAGACUGCCUCUCUGGAUUCCUCGUCACUCAGCAGGGCAUCUCUGAGAGAAAUGCC [U23C A77U]: the self-cleavage stood at 1.36.
Regarding UACGUAGGUGGUUUUCCCCUGACAGUGCUAAGGGGGCCUGGAAGUUUGGACUGGGCAGAGCUCAACACAGCGUGGCGAAGUGGCUGUGGCUAGACUGCCUCUCUGGAUUCCUCGUCACUCAGCAGGGCAUCUCUGAGAGAAAUGCC [U23C A77G], the self-cleavage is 1.24.
As for UACGUAGGUGGUUUUCCCCUGACAGUGCUAAGGGGGCCUGGAAGUUUGGACUGGGCAGAGCUCAACACAGCGUGGCAAAGUGGCUGUGGCUAGACUGCCUCUCUGGAUUCCUUGUCACUCAGCAGGGCAUCUCUGAGAGAAAUGCC [U23C C113U], the self-cleavage stood at 0.88.
UACGUAGGUGGUUUUCCCCUGACAGUGCUAAGGGGGCCUGGAAGUUUGGACUGGGCAGAGCUCAACACAGCGUGGCAAAGUGGCUGUGGCUAGACUGCCUCUCUGGAUUCCUCGUCACUCAGCAGGGCAUCUCUGAGUGAAAUGCC [U23C A138U]: the self-cleavage was 1.84.
To UACGUAGGUGGUUUUCCCCUGACAGUGCUAAGGGGGCCUGGAAGUUUGGACUGGGCAGAGCUCAACACGGCGUGGCAAAGUGGCUGUGGCUAGACUGCCUCUCUGGAUUCCUCGUCACUCAGCAGGGCAUCUCUGAGAGAAAUGCC [U23C A69G] belongs 1.2.
To UACGUAGGUGGUUUUCCCCUGACAGUGCUAAGGGGGCCUGGAAGUUUGGACUGGGCAGAGCUCAACACAGCGUGGCAAAGUGGCUGUGGCUAGACUGCCUCUCUGGAUUCCUCGUCACUCAGCAGGGCAUCUCUGUGAGAAAUGCC [U23C A136U] belongs 1.19.
As to UACGUAGGUGGUUUUCCCCUGACAGUGCUAAGGGGGCCUGGAAGUUUGGACUGGGCAGAGCUCAACACAGCGUGGCAAAGUGGCUGUGGCUAGACUGCCUCUCUGGAUUCCUCGUCACUCAGCUGGGCAUCUCUGAGAGAAAUGCC [U23C A124U], the self-cleavage worked out at 1.22.
Take UACGUAGGUGGUUUUCCCCUGACAGUGCUAAGGGGGCCUGGAAGUUUGGACUGGGCAGAGCUCAACACAGCGUGGCAAAGUGGCUGUGGCUAGACUGCCUCUCUGGAUUCCUCGUCACUCAGCCGGGCAUCUCUGAGAGAAAUGCC [U23C A124C]: the self-cleavage was 1.34.
For the variant UACGUAGGUGGUUUUCCCCUGACAGUGCUAAGGGGGCCUGGAAGUUUGGACUGGGCAGAGCUCAACACAGCGUGGCAGAGUGGCUGUGGCUAGACUGCCUCUCUGGAUUCCUCGUCACUCAGCAGGGCAUCUCUGAGAGAAAUGCC [U23C A78G], the self-cleavage came out at 1.25.
Consider UACGUAGGUGGUUUUCCCCUGACAGUGCUAAGGGGGCCUGGAAGUUUGGACUGGGCAGAGCUCAAUACAGCGUGGCAAAGUGGCUGUGGCUAGACUGCCUCUCUGGAUUCCUCGUCACUCAGCAGGGCAUCUCUGAGAGAAAUGCC [U23C C66U], for which the self-cleavage is 0.05.
To UACGUAGGUGGUUUUCCCCUGACAGUGCUAAGGGGGCCUGGAAGUUUGGACUGGGCAGAGCUCAACACAGCGUGGCAAAGUGGCUGUGGCUAGACUGCCUCUCUGGAUUCCUCGUCACUCAGCAGGGCGUCUCUGAGAGAAAUGCC [U23C A129G] belongs 0; to UACGUAGGUGGUUUUCCCCUGACAGUGCUAAGGGGGCCUGGAAGUUUGGACUGGGCAGAGCUCAACACAGCGUGGCAAAGUGGCUGUGGCUAGGCUGCCUCUCUGGAUUCCUCGUCACUCAGCAGGGCAUCUCUGAGAGAAAUGCC [U23C A94G], 0.37.
Next, UACGUAGGUGGUUUUCCCCUGACAGUGCUAAGGGGGCCUGGAAGUUUGGACUGGGCAGAGCUCAACACAGCGUGGCAAAGUGGCUGUGGCUAGACUGCCUCUCUGUAUUCCUCGUCACUCAGCAGGGCAUCUCUGAGAGAAAUGCC [U23C G106U]: 1.04; UACGUAGGUGGUUUUCCCCUGACAGUGCUAAGGGGGCCUGGAAGUUUGGUCUGGGCAGAGCUCAACACAGCGUGGCAAAGUGGCUGUGGCUAGACUGCCUCUCUGGAUUCCUCGUCACUCAGCAGGGCAUCUCUGAGAGAAAUGCC [U23C A50U]: 1.
UACGUAGGUGGUUUUCCCCUGACAGUGCUAAGGGGGCCUGGAAGUUUGGGCUGGGCAGAGCUCAACACAGCGUGGCAAAGUGGCUGUGGCUAGACUGCCUCUCUGGAUUCCUCGUCACUCAGCAGGGCAUCUCUGAGAGAAAUGCC [U23C A50G]: the self-cleavage was found to be 1.34.
Next, UACGUAGGUGGUUUUCCCCUGACAGUGCUAAGGGGGCCUGGAAGUUUGGACUGGGCAGAGCUCAACACAGCGUGGCAAAGUGGCUGUGGCUAGACUGCCUUUCUGGAUUCCUCGUCACUCAGCAGGGCAUCUCUGAGAGAAAUGCC [U23C C101U]: 1.31; UACGUAGGUGGUUUUCCCCUGACAGUGCUAAGGGGGCCUGGAAGUUUGGACUGGGCAGAGCUCAACACAGCGUGGCAAAGUGGCUGUGGCUAGACUGCCUCUCUGGAUUCCUCGUCACUCAGCAGGGCAUCUCUGAGAGAAAUGCA [U23C C146A]: 0; UACGUAGGUGGUUUUCCCCUGACAGUGCUAAGGGGGCCUGGAAGUUUGGACUGGGCAAAGCUCAACACAGCGUGGCAAAGUGGCUGUGGCUAGACUGCCUCUCUGGAUUCCUCGUCACUCAGCAGGGCAUCUCUGAGAGAAAUGCC [U23C G58A]: 0.1.
Next, UACGUAGGUGGUUUUCCCCUGACAGUGCUAAGGGGGCCUGGAAGUUUGGACUGGGCAGAGCUCAACACAGCGUGGCAAAGUGGCUGUGGCUAGAUUGCCUCUCUGGAUUCCUCGUCACUCAGCAGGGCAUCUCUGAGAGAAAUGCC [U23C C95U]: 0.22; UACGUAGGUGGUUUUCCCCUGACAGUGCUAAGGGGGCCUGGAAGUUUGGACUGGGCAGAGCUCAUCACAGCGUGGCAAAGUGGCUGUGGCUAGACUGCCUCUCUGGAUUCCUCGUCACUCAGCAGGGCAUCUCUGAGAGAAAUGCC [U23C A65U]: 0.09; UACGUAGGUGGUUUUCCCCUGACAGUGCUAAGGGGGCCUGGAAGUUUGGACUGGGCAGAGCUCAGCACAGCGUGGCAAAGUGGCUGUGGCUAGACUGCCUCUCUGGAUUCCUCGUCACUCAGCAGGGCAUCUCUGAGAGAAAUGCC [U23C A65G]: 0.1.
To UACGUAGGUGGUUUUCCCCUGACAGUGCUAAGGGGGCCUGGAAGUUUGGACUGGCCAGAGCUCAACACAGCGUGGCAAAGUGGCUGUGGCUAGACUGCCUCUCUGGAUUCCUCGUCACUCAGCAGGGCAUCUCUGAGAGAAAUGCC [U23C G55C] belongs 0.06; to UACGUAGGUGGUUUUCCCCUGACAGUGCUAAGGGGGCCUGGAAGUUUGGACUGGGCAGAGCUCAACACAGCGUGGCAAAGUGGCUGUGGCUAGACUGCCUCUCUGGAUUCCUCGUCCCUCAGCAGGGCAUCUCUGAGAGAAAUGCC [U23C A117C], 1.51; to UACGUAGGUGGUUUUCCCCUGACAGUGCUAAGGGGGCCUGGAAGUUUGGACUGGGCAGAGCUCAACACAGCGUGGCAAAGUGGCUGUGGCUAGACUGCUUCUCUGGAUUCCUCGUCACUCAGCAGGGCAUCUCUGAGAGAAAUGCC [U23C C99U], 0.91.
As for UACGUAGGUGGUUUUCCCCUGACAGUGCUAAGGGGGCCUGGAAGUUUGGACUGGGCAGAGCUCAACACAGCGUAGCAAAGUGGCUGUGGCUAGACUGCCUCUCUGGAUUCCUCGUCACUCAGCAGGGCAUCUCUGAGAGAAAUGCC [U23C G74A], the self-cleavage came to 0.99.

For the origin of these results see the RNAGym collection of RNA variant scans (doi:10.7554/elife.90254).
